These results are taken from PMC6951436 (Cell reports, 2019).

This series concerns the molecule itself. The series can be described thus: native gel or EMSA + SEC.

Several values for one entry are separate records, joined by “and”; a condition that tells them apart may be missing. Equal values may be shown once.

B1: pyruvate kinase liver isoform phosphorylated at S113 (PKL pS113) (enzyme)
chain: not shown
modifications: phosphoserine at 113 (82.8% phosphorylated)
On to B1, for which the “stoichiometry N” value is 4 and 2.

B2: pyruvate kinase liver isoform phosphorylated at S12 (PKL pS12) (enzyme)
chain: not shown
modifications: phosphoserine at 12 (71.2% phosphorylated)
For B2, the “stoichiometry N” value is 4 and 2.
